{"source": "patent US20120251453A1", "about": "(SANFORD BURNHAM MEDICAL RESEARCH INSTITUTE, published 2012)", "key": {"[1]": {"molecular_target": "recombinant Anxa1-His6 protein", "experiment": "isothermal titration calorimetry, peptide injected into Anxa1-His protein, 23° C.; average over two Anxa1-His preparations"}, "[2]": {"molecular_target": "T1, annexin 1 (Anxa1) expressed on mouse endothelial cells (F-2 cells; tumor vasculature in mice) (mouse, UniProt P10107 2-346)", "T1 construct": "whole, on cells; Endogenous protein on cells; also called Anxa1 expressed on the endothelial cell surface", "T1 sequence (looked up)": "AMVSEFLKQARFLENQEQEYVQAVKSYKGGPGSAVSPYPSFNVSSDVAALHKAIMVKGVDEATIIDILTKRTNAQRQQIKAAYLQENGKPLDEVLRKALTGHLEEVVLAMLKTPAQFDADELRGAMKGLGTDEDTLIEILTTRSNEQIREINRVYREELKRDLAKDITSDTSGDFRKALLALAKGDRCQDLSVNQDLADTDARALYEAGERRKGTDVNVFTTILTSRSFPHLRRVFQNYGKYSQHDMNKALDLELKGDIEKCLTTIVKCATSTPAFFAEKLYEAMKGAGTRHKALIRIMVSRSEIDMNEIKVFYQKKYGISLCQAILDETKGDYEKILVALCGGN", "experiment": "in vivo phage targeting in B16 tumor-bearing mice pre-injected with control rabbit IgG or anti-Anxa1 antibody; colonies recovered from tissue homogenates", "source_text": "FIGS. 1A-1H show the essential role of annexin 1 (Anxa1) in tumor growth and identification of a peptide sequence with tumor vasculature targeting activity in vivo. A and B. Growth of B16 tumors subcutaneously injected into Anxa1(+/−) and Anxa1(−/−) mutant mice. C. Histology of B16 tumors produced in Anxa1(+/−) and Anxa1(−/−) mice. Each scale bar represents 2.00 mm. D. Immunohistochemistry of B16 tumors for CD31 showing endothelial cells and vasculature. Each scale bar represents 200 μm. E. In vivo phage targeting in B16 tumor-bearing mice. Numbers of transformed colonies recovered from the tumor or lung were determined. […] F. In vivo tumor and organ targeting activity of IFLLWQR (SEQ ID NO:2) displaying phage. Phage was injected into B16 tumor bearing mice pre-injected with anti-Anxa1 antibody or with control rabbit IgG. G. In vitro plate assay for binding of IF7-A488 (upper line) and control RQ7-A488C (lower line) to recombinant […] protein produced by bacteria. H. Effect of IF7 (upper line) and control RQ7 (lower line) on binding of FITC-labeled polyacrylamide-LeA oligosaccharide to Anxa1-His₆ protein.\nMouse melanoma B16F1 cells (2×10⁵ cells/100 μl PBS) were injected subcutaneously into the dorsal flank of C57BL/6 female mice (8-10 weeks old). […] Colonies appearing on an agar plate after culturing at 37° C. for 20 hours were counted."}, "[3]": {"molecular_target": "T1, annexin 1 (Anxa1) expressed on mouse …", "experiment": "intravital fluorescence of LLC tumors in a dorsal skinfold chamber after intravenous injection; signal intensity over time, with or without pre-injected rabbit IgG or anti-Anxa1 antibody", "method": "(A) Lewis lung carcinoma (LLC) tumors were allowed to vascularize for 3 days in dorsal skinfold chamber window in nude mice. Mice were injected with 100 μl of 50 μM IF7-A488 (row a) or RQ7-A488 (row b) in 5% glucose in water. IF7-A488 was also injected to tumor-bearing mice pre-injected with rabbit IgG (row c) or with rabbit anti-Anxa1 antibody (row d). Fluorescence signals were monitored under a fluorescence microscope up to 40 min post-injection. From left: bright field before injection, and fluorescence at 0, 5, 20 min after injection. Far right, the boundary of tumor and stroma at 20 min (Scale bar=500 μm). (B) Quantitative analysis of fluorescence during the course of the analysis shown in A. The line with the highest signal at 10 minutes represents IF&-A488. The line with the second highest signal at 10 minutes represents the control IgG. […] Intensity of fluorescence was determined by Image J program. […] (C) Fluorescence micrographs of tumor sections 20 min after injection with IF7-A488 and RQ7-A488. […] IF7-A488 signals (upper row) were detected on endothelial cells of tumor vasculature (Scale bar=50 μm), while no RQ7-A488 signal was detected (lower row). […] Arrows indicate fluorescence. (D) Fluorescence remained in circulation in mice with or without subcutaneous B16 tumors. IF7-A488 was injected intravenously through the tail vein, and fluorescence remaining in circulation was measured. […]"}, "[4]": {"molecular_target": "T1, annexin 1 (Anxa1) expressed on mouse …", "experiment": "fluorescence microscopy of mouse endothelial F-2 cells cultured in vitro", "method": "F-2 cells cultured on a filter of trans well insert was added with IF7C(RR)-conjugated FITC-poly-L-lysine to allow the reagent being bound to apical cell surface of F-2 cells. After washing the monolayer with medium, insert was placed in wells containing medium at 37° C. or at 4° C. Fluorescence moved to the lower chamber of insert was measured. C. Targeting and penetration of intravenously injected IF7C(RR)-conjugated FITC-poly-L-lysine in the B16 tumor in vivo in the mouse. Tissue section was immunostained for endothelial cell marker CD31.\nSince IF7-SN38 is highly hydrophobic, there was a concern regarding a possibility that IF7-SN38 becomes insoluble after intravenous injection. Such may reduce the activity of IF7-SN38 in vivo. To increase the solubility of IF7-SN38 in aqueous environment, two arginine residues were added to IF7 after the cysteine residue. Thus IFLLWQR-C-RR (SEQ ID NO:17) or IF7C(RR) was synthesized. When IF7C(RR) was conjugated to FITC-poly-L-lysine, IF7C(RR)-conjugated FITC-poly-L-lysine bound to the surface of Anxa1-expressing mouse endothelial F-2 cells (FIG. 12A). […] When IF7C(RR)-conjugated FITC-poly-L-lysine was added to F-2 cells grown on a filter of the insert for trans well chamber, washed and then incubated in a medium at 37° C. or at 4° C., fluorescence migrated to the lower chamber from cells incubated at 37° C. but not at 4° C. […]"}, "[5]": {"molecular_target": "T1, annexin 1 (Anxa1) expressed on mouse …", "experiment": "intravital fluorescence of LLC tumors in a dorsal skinfold chamber after intravenous injection; signal intensity over time", "method": "The line with the lowest signal at 10 minutes represents RQ7-A488. Intensity of fluorescence was determined by Image J program. Error bars represent SD (n=3). Asterisks show statistical significance or p<0.0001, t test. (C) Fluorescence micrographs of tumor sections 20 min after injection with IF7-A488 and RQ7-A488. From left: IF7-A488, DAPI, merged, and bright field. IF7-A488 signals (upper row) were detected on endothelial cells of tumor vasculature (Scale bar=50 μm), while no RQ7-A488 signal was detected (lower row). Experiments were repeated 3 times, and representative results are shown. Arrows indicate fluorescence. (D) Fluorescence remained in circulation in mice with or without subcutaneous B16 tumors. IF7-A488 was injected intravenously through the tail vein, and fluorescence remaining in circulation was measured. […]\nA Lewis lung carcinoma (LLC) tumor was produced in a donor nude mouse by subcutaneous injection, and small piece of tumor (less than 1 mm³) was transplanted to a dorsal skinfold chamber in a recipient nude mouse (8-10 weeks female Balb/c nude) as described (Lehr et al., Am J Pathol 1993; 143:1055-62; Oh et al., Nat Biotechnol 2007; 25:327-37). […] Signal intensity in the tumor from 0 min to 40 min was measured by Image J (NIH, Maryland). After 10 min, irradiation of specimens by a UV lamp was limited only to times when photos were taken to avoid fluorescence bleaching. […]"}}, "note": "No end group written: not given here. Alexa Fluor 488 C5‑maleimide = fluorescent dye linked to the Cys thiol through maleimide"}
{"binder": "IFLLWQRKKKC", "note": "[IF7K3C peptide (…)]", "values": [{"measurement": "Kd", "setting": "[1]", "result": 11, "unit": "µM"}]}
{"binder": "IFLLWQR (peptide, not shown: large carriers, also called IF7 phage; clone #2)", "note": "[IFLLWQR (SEQ ID NO:2) displaying phage]", "values": [{"measurement": "binding result", "setting": "[2]", "result": "binds"}]}
{"binder": "IFLLWQRC(Alexa Fluor 488 C5‑maleimide) (Synthetic peptide (GenScript))", "note": "[IF7-A488 (chemically synthesized IF7 conjugated with fluorescent Alexa 488)]", "values": [{"measurement": "binding result", "setting": "[3]", "result": "binds"}]}
{"binder": "IFLLWQRCRR (peptide, not shown: large carriers, also: conjugated to FITC-poly-L-lysine, site and chemistry not given here, Polymer conjugate; also called IF7C(RR)-conjugated FITC-polylysine; IF7C(RR)-conjugated FITC-poly-lysine)", "note": "[IF7C(RR)-conjugated FITC-poly-L-lysine]", "values": [{"measurement": "binding result", "setting": "[4]", "result": "binds"}]}
{"binder": "RQWLLFI (also: Alexa 488 conjugated, site of attachment not given here, also called RQ7-A488C; control RQ7-A488)", "note": "[RQ7-A488 (Alexa 488 conjugated with RQWLLFI or reverse IF7)]", "values": [{"measurement": "binding result", "setting": "[5]", "result": "no binding"}]}
